167 variants from the RNAGym collection of RNA variant scans (doi:10.7554/elife.80360) can be followed below.

The labels stand for the following.
B1: Hammerhead Ribozyme (parent)
chain: ACCGGAUGUGCUUUCCGGUCUGAUGAGUCCGUGAGGACGAAACAG

Variants of B1 are the subject of this data set. Kind of data set: self-cleavage, relative activity (ratio to wild type); higher = more cleavage; co-transcriptional.
Turning to G4U G5A, the self-cleavage was found to be 0.284.
Next, G4U G5U: 0.359.
For the variant G4U C11U, the self-cleavage was found to be 0.319.
G4U C11A: the self-cleavage was 0.502.
Consider G4U C11G, for which the self-cleavage amounted to 0.52.
Consider G4C G25C, for which the self-cleavage stood at 0.289.
As to G4C G25U, the self-cleavage worked out at 0.289.
Next, G4C G25A: 0.307; G4A G22U: 0.302; G4A G22C: 0.354.
Next, G4A G22A: 0.281; G4U G36A: 0.321.
Next, G4U G36C: 0.313; G4U G36U: 0.267.
For G4U U32C, the self-cleavage came to 0.487.
Regarding G4U U32A, the self-cleavage was found to be 0.507.
Consider G4U U32G, for which the self-cleavage was 0.316.
With G4C U7C, the self-cleavage was 0.353.
For G4C U7A, the self-cleavage was determined as 1.03.
As to G4C U7G, the self-cleavage amounted to 0.768.
For G4C G10A, the self-cleavage was determined as 0.662.
For the variant G4C G10U, the self-cleavage came out at 0.722.
Regarding G4C G10C, the self-cleavage amounted to 0.436.
Regarding G4A G45C, the self-cleavage was found to be 0.393.
Turning to G4A G45U, the self-cleavage is 0.418.
For G4A G45A, the self-cleavage amounted to 0.348.
For the variant G5A A44G, the self-cleavage is 1.29.
Turning to G5A A44U, the self-cleavage stood at 0.532.
As to G5A A44C, the self-cleavage came out at 0.662.
As to G4C A44G, the self-cleavage worked out at 0.805.
Consider G4C A44U, for which the self-cleavage stood at 0.34.
As to G4C A44C, the self-cleavage was determined as 0.422.
Next, G4A U21A: 0.312; G4A U21G: 0.374; G4A U21C: 0.373.
Next, G4C C30A: 0.594.
Take G4C C30U: the self-cleavage amounted to 0.703.
As to G4C C30G, the self-cleavage was 0.371.
Next, G4A G27U: 0.366.
On to G4A G27A, for which the self-cleavage is 0.332.
Consider G4A G27C, for which the self-cleavage was found to be 0.297.
Next, G4A U19A: 0.353.
Consider G4A U19C, for which the self-cleavage was determined as 0.276.
As for G4A U19G, the self-cleavage came out at 0.238.
For G4U U9A, the self-cleavage is 0.395.
As to G4U U9C, the self-cleavage was determined as 0.413.
Regarding G4U U9G, the self-cleavage stood at 0.368.
As to G4A G35C, the self-cleavage amounted to 0.391.
As to G4A G35U, the self-cleavage is 0.382.
As to G4A G35A, the self-cleavage came to 0.386.
Consider G4U C43A, for which the self-cleavage was found to be 0.272.
On to G4U C43U, for which the self-cleavage worked out at 0.261.
On to G4U C43G, for which the self-cleavage stood at 0.295.
G4C C20G: the self-cleavage was 0.266.
G4C C20A: the self-cleavage turned out to be 0.244.
Next, G4C C20U: 0.441.
In the case of G4U A23U, the self-cleavage is 0.333.
Next, G4U A23C: 0.257.
As to G4U A23G, the self-cleavage is 0.303.
As to G4C G18C, the self-cleavage is 0.251.
Consider G4C G18U, for which the self-cleavage amounted to 0.284.
On to G4C G18A, for which the self-cleavage is 0.303.
Take G4C U9C: the self-cleavage amounted to 0.704.
Consider G4C U9A, for which the self-cleavage was determined as 0.613.
For the variant G4C U9G, the self-cleavage was determined as 0.573.
For the variant G4A U9A, the self-cleavage is 0.458.
Next, G4A U9G: 0.423; G4A U9C: 0.47; G4U U13G: 0.725.
With G4U U13A, the self-cleavage amounted to 1.14.
G4U U13C: the self-cleavage was found to be 0.634.
Take G4C G33C: the self-cleavage came to 0.742.
As to G4C G33U, the self-cleavage is 0.837.
Next, G4C G33A: 0.879.
Regarding G4C A6U, the self-cleavage was found to be 0.281.
Next, G4C A6G: 0.358; G4C A6C: 0.251.
As for G4C U24G, the self-cleavage was found to be 0.599.
Take G4C U24C: the self-cleavage was 0.631.
On to G4C U24A, for which the self-cleavage was 0.777.
For G4U G17A, the self-cleavage worked out at 0.316.
As to G4U G17U, the self-cleavage worked out at 0.294.
Next, G4U G17C: 0.34; G5A A6G: 0.82; G5A A6U: 0.696.
Regarding G5A A6C, the self-cleavage came to 0.483.
Take G5A A41G: the self-cleavage came to 0.327.
G5A A41U: the self-cleavage was 0.327.
G5A A41C: the self-cleavage is 0.325.
With G4C A40C, the self-cleavage came out at 0.352.
As to G4C A40U, the self-cleavage is 0.255.
Consider G4C A40G, for which the self-cleavage is 0.243.
Next, G4C U19G: 0.322; G4C U19C: 0.297; G4C U19A: 0.283.
As to G4U A34G, the self-cleavage stood at 0.452.
On to G4U A34U, for which the self-cleavage was found to be 0.43.
On to G4U A34C, for which the self-cleavage came to 0.296.
Next, G4C A42G: 0.359.
For the variant G4C A42C, the self-cleavage was found to be 0.296.
Next, G4C A42U: 0.297.
For G4C C15U, the self-cleavage was 0.557.
Next, G4C C15G: 0.929.
As for G4C C15A, the self-cleavage was 0.524.
On to G4U A6C, for which the self-cleavage worked out at 0.282.
As to G4U A6U, the self-cleavage was found to be 0.387.
As for G4U A6G, the self-cleavage stood at 0.327.
For G4C U12G, the self-cleavage was found to be 0.599.
Consider G4C U12A, for which the self-cleavage worked out at 0.766.
As for G4C U12C, the self-cleavage stood at 0.513.
As to G4C A41G, the self-cleavage was found to be 0.255.
For the variant G4C A41U, the self-cleavage stood at 0.267.
In the case of G4C A41C, the self-cleavage stood at 0.316.
As to G4U A26U, the self-cleavage came to 0.378.
Take G4U A26G: the self-cleavage came out at 0.274.
Next, G4U A26C: 0.35; G4A U32G: 0.436; G4A U32A: 0.579.
As to G4A U32C, the self-cleavage is 0.516.
Next, G5A A34G: 1.2.
As to G5A A34C, the self-cleavage is 1.1.
On to G5A A34U, for which the self-cleavage stood at 1.06.
Turning to G4U A42G, the self-cleavage came out at 0.336.
Next, G4U A42U: 0.307; G4U A42C: 0.265; G4A G36A: 0.367.
Consider G4A G36U, for which the self-cleavage amounted to 0.37.
Next, G4A G36C: 0.343; G4U U21A: 0.342; G4U U21G: 0.325.
With G4U U21C, the self-cleavage was found to be 0.352.
G4C C16G: the self-cleavage is 1.35.
Next, G4C C16U: 1.39; G4C C16A: 1.65; G4U G35A: 0.337.
Next, G4U G35U: 0.388; G4U G35C: 0.326; G4C G45C: 0.4.
Take G4C G45U: the self-cleavage worked out at 0.4.
For the variant G4C G45A, the self-cleavage amounted to 0.355.
Turning to G4U U7A, the self-cleavage worked out at 0.432.
Consider G4U U7C, for which the self-cleavage was 0.361.
As for G4U U7G, the self-cleavage is 0.381.
G4U C15A: the self-cleavage stood at 0.425.
Next, G4U C15U: 0.523.
Take G4U C15G: the self-cleavage amounted to 0.436.
Regarding G4U U28C, the self-cleavage worked out at 0.266.
Regarding G4U U28G, the self-cleavage was 0.308.
G4U U28A: the self-cleavage was determined as 0.234.
As for G4U G39A, the self-cleavage was 0.263.
With G4U G39U, the self-cleavage is 0.29.
Next, G4U G39C: 0.266.
On to G4U C30U, for which the self-cleavage was 0.558.
In the case of G4U C30A, the self-cleavage came to 0.4.
As for G4U C30G, the self-cleavage amounted to 0.305.
For the variant G4C U21A, the self-cleavage amounted to 0.309.
On to G4C U21C, for which the self-cleavage amounted to 0.363.
On to G4C U21G, for which the self-cleavage was found to be 0.239.
As for G4U G8U, the self-cleavage was 0.933.
G4U G8A: the self-cleavage amounted to 0.47.
Next, G4U G8C: 0.377; G4U A41C: 0.276; G4U A41U: 0.308.
As to G4U A41G, the self-cleavage turned out to be 0.263.
For G4C C43A, the self-cleavage amounted to 0.285.
Turning to G4C C43U, the self-cleavage worked out at 0.298.
As for G4C C43G, the self-cleavage turned out to be 0.315.
